Reference: patent US20240150489A1 (ICHNOS SCIENCES, published 2024)

T1: human FcγR2a-ECD-His (human, UniProt P12318 34-208)
T1 construct: His-tagged fusion made in house (UniProt P12318); The SPR method names only 'Fc-receptors IIa, IIb, and IIIa'; also called FcγRIIa; Fc-receptor IIa
T1 chain: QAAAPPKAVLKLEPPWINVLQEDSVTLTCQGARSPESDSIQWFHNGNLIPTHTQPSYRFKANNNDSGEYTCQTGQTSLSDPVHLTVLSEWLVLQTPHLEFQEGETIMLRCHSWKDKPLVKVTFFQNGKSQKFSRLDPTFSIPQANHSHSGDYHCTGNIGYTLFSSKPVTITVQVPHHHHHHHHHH

T2: human FcγR2b-ECD-His (human, UniProt P31994 46-217)
T2 construct: His-tagged fusion made in house (UniProt P31994); also called FcγRIIb; Fc-receptor IIb
T2 sequence: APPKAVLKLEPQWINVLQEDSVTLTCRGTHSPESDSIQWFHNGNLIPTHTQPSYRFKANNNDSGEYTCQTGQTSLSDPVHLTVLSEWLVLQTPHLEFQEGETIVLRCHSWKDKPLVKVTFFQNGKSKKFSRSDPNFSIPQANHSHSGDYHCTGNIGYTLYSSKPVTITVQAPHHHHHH


Key:
[1] = biological target: T1, human FcγR2a-ECD-His; assay: SPR steady state, antibody on protein G chip, receptor analyte; reference trastuzumab control IgG1
[2] = biological target: T2, human FcγR2b-ECD-His; assay: as above
[3] = biological target: T3, human FcγR3a-ECD-His (human, UniProt P08637 17-193); assay: as above
T3 construct: His-tagged fusion made in house (UniProt P08637); also called FcγRIIIa; Fc-receptor IIIa

[4] = biological target: T4, CD38 on cells (Daudi, Raji, KMS-12-PE, NCI-H929, KMS-12-BM) (human, UniProt P28907); assay: flow cytometry on KMS-12-PE cells (carry CD38 and CD47), anti-human IgG-Fc PE, GeoMFI; apparent whole-cell value, the anti-CD47 arm also binds
T4 construct: full-length, cell surface; These cells also carry CD47

[5] = biological target: T4, CD38 on cells (Daudi, Raji, KMS-12-PE, …); assay: flow cytometry on Daudi cells (carry CD38 and CD47), anti-human IgG-Fc PE, GeoMFI; apparent whole-cell value, the anti-CD47 arm also binds
[6] = biological target: T4, CD38 on cells (Daudi, Raji, KMS-12-PE, …); assay: flow cytometry on NCI-H929 cells (carry CD38 and CD47), anti-human IgG-Fc PE, GeoMFI; apparent whole-cell value, the anti-CD47 arm also binds
[7] = biological target: T5, Avi-Tagged FcRn (Acrobiosystems, FCM-H82W2) (human, UniProt P55899 24-297, biotinylated (captured with Biotin CAPture kit)); assay: SPR steady state, FcRn captured on CAP chip, antibody analyte; reference trastuzumab control IgG1
T5 construct: also called human neonatal Fc receptor

[8] = biological target: T4, CD38 on cells (Daudi, Raji, KMS-12-PE, …); assay: flow cytometry on Raji cells (carry CD38 and CD47), anti-human IgG-Fc PE, GeoMFI; apparent whole-cell value, the anti-CD47 arm also binds
[9] = biological target: Avi-Tagged FcγRIa (Acrobiosystems, FCA-H82E8) (UniProt P12314 16-288, biotinylated (captured with Biotin CAPture kit)); assay: SPR, FcγRIa captured on CAP chip, antibody analyte; reference trastuzumab control IgG1
[10] = biological target: T4, CD38 on cells (Daudi, Raji, KMS-12-PE, …); assay: flow cytometry on KMS-12-BM cells (carry CD38 and CD47), anti-human IgG-Fc PE, GeoMFI; apparent whole-cell value, the anti-CD47 arm also binds
[11] = biological target: T6, CD47 on cells (Daudi cells; human red blood cells) (human, UniProt Q08722 19-323); assay: blocking of SIRPα-mIgG1 Fc binding to CD47 on Daudi cells, image-based readout with anti-mouse IgG Fc Alexa Fluor 647, % inhibition; the sheet calls the half-maximal value EC50
T6 construct: whole, on cells; These cells also carry CD38

fold gain in affinity vs control [1] | fold gain in affinity vs control [2] | fold gain in affinity vs control [3] | EC50 (read off the curve) [4] | EC50 (read off the curve) [5] | EC50 (read off the curve) [6] | KD ratio [BEAT/Control IgG1] [7] | EC50 (read off the curve) [8] | fold gain in affinity vs control [9] | EC50 (read off the curve) [10] | IC50 (read off the curve) [11] | Binder
7 fold | 16 fold | 10 fold | ~6 nM | ~8 nM | ~20 nM | 0.2 ratio | ~10 nM | 864 fold | ~30 nM | ~0.05 nM | BEAT CD38/CD47-48 (bispecific antibody, human IgG1, kappa, 2+1 biparatopic format; the number of light chains follows from the three Fab domains; also called BEAT CD38/47-48; BEAT 38/47-48) heavy 1: EVQLVESGGGLIQPGGSLRLSCAASGFTLSRNTMHWVRQAPGKGLEWVSVIYQSGVTRYADSVKSRFTISRDNSKNTLYLQMNSLRAEDTAVYYCARGRYGVAGGPGYAFDVWGQGTLVTVSSASTKGPSVFPLAPSSKSTSGGTAALGCLVKDYFPEPVTVSWNSGALTSGVHTFPAVLQSSGLYSLSSVVTVPSSSLGTQTYICNVNHKPSNTKVDKKVEPKSCDKTHTCPPCPAPELLGGPDVFLFPPKPKDTLMISRTPEVTCVVVDVSHEDPEVKFNWYVDGVEVHNAKTKPREEQYNSTYRVVSVLTVLHQDWLNGKEYKCKVNNKALPAPEEKTISKAKGQPREPAVYTLPPSREEMTKNQVKLVCLVTGFYPSDIAVEWESSGQPENNYYTTPPMLDSDGSFSLVSWLNVDKSRWQQGNIFSCSVMHEALHNRFTQKSLSLSPG heavy 2: not shown light: not shown
0.5 fold | 1 fold | 3 fold |  |  |  |  |  | 12 fold |  |  | BEAT CD38/CD47-32 (bispecific antibody, human IgG1, kappa, 2+1 monoparatopic format; E269D + S298A + S324N + E333A in both heavy chains) heavy 1: EVQLVESGGGLIQPGGSLRLSCAASGFTLSRNTMHWVRQAPGKGLEWVSVIYQSGVTRYADSVKSRFTISRDNSKNTLYLQMNSLRAEDTAVYYCARGRYGVAGGPGYAFDVWGQGTLVTVSSASTKGPSVFPLAPSSKSTSGGTAALGCLVKDYFPEPVTVSWNSGALTSGVHTFPAVLQSSGLYSLSSVVTVPSSSLGTQTYICNVNHKPSNTKVDKKVEPKSCDKTHTCPPCPAPELLGGPSVFLFPPKPKDTLMISRTPEVTCVVVDVSHDDPEVKFNWYVDGVEVHNAKTKPREEQYNATYRVVSVLTVLHQDWLNGKEYKCKVNNKALPAPIAKTISKAKGQPREPAVYTLPPSREEMTKNQVKLVCLVTGFYPSDIAVEWESSGQPENNYYTTPPMLDSDGSFSLVSWLNVDKSRWQQGNIFSCSVMHEALHNRFTQKSLSLSPG heavy 2: QVQLVQSGAEVKKPGSSVKVSCKASGLPDATYAIGWVRQAPGQGLEWMGRIIPRLDAEHYAQKFQGRVTITADESTSTAYMELSSLRSEDTAVYYCARGLGYYLYSSYYFDIWGQGTLVTVSSASTKGPSVFPLAPSSKSTSGGTAALGCLVKDYFPEPVTVSWNSGALTSGVHTFPAVLQSSGLYSLSSVVTVPSSSLGTQTYICNVNHKPSNTKVDKKVEPKSCGGGGSGGGGSGGGGSQVQLVQSGAEVKKPGSSVKVSCKASGLPDATYAIGWVRQAPGQGLEWMGRIIPRLDAEHYAQKFQGRVTITADESTSTAYMELSSLRSEDTAVYYCARGLGYYLYSSYYFDIWGQGTLVTVSSASTKGPSVFPLAPSSKSTSGGTAALGCLVKDYFPEPVTVSWNSGALTSGVHTFPAVLQSSGLYSLSSVVTVPSSSLGTQTYICNVNHKPSNTKVDKKVEPKSCDKTHTCPPCPAPELLGGPSVFLFPPKPKDTLMISRTPEVTCVVVDVSHDDPEVKFNWYVDGVEVHNAKTKPREEQYNATYRVVSVLTVLHQDWLNGKEYKCKVNNKALPAPIAKTISKAKGQPREPEVATFPPSRDELTKNQVTLVCLVTGFYPSDIAVEWESNGQPENNYKTDPPLLESQGSFALSSRLRVDKSRWQQGNVFSCSVMHEALHNHYTQKSLSLSPG light: not shown
0.4 fold | 1 fold | 4 fold |  |  |  | 0.3 ratio |  | 4510 fold |  |  | BEAT CD38/CD47-40 (bispecific antibody, human IgG1, kappa, 2+1 biparatopic format; E269D + S298A + S324N + K334A in both heavy chains) heavy 1: EVQLVESGGGLIQPGGSLRLSCAASGFTLSRNTMHWVRQAPGKGLEWVSVIYQSGVTRYADSVKSRFTISRDNSKNTLYLQMNSLRAEDTAVYYCARGRYGVAGGPGYAFDVWGQGTLVTVSSASTKGPSVFPLAPSSKSTSGGTAALGCLVKDYFPEPVTVSWNSGALTSGVHTFPAVLQSSGLYSLSSVVTVPSSSLGTQTYICNVNHKPSNTKVDKKVEPKSCDKTHTCPPCPAPELLGGPSVFLFPPKPKDTLMISRTPEVTCVVVDVSHDDPEVKFNWYVDGVEVHNAKTKPREEQYNATYRVVSVLTVLHQDWLNGKEYKCKVNNKALPAPIEATISKAKGQPREPAVYTLPPSREEMTKNQVKLVCLVTGFYPSDIAVEWESSGQPENNYYTTPPMLDSDGSFSLVSWLNVDKSRWQQGNIFSCSVMHEALHNRFTQKSLSLSPG heavy 2: not shown light: not shown
0.4 fold | 1 fold | 4 fold |  |  |  |  |  | 874 fold |  |  | BEAT CD38/CD47-34 (bispecific antibody, human IgG1, kappa, 2+1 monoparatopic format; E269D + S298A + S324N + K334A in both heavy chains) heavy 1: EVQLVESGGGLIQPGGSLRLSCAASGFTLSRNTMHWVRQAPGKGLEWVSVIYQSGVTRYADSVKSRFTISRDNSKNTLYLQMNSLRAEDTAVYYCARGRYGVAGGPGYAFDVWGQGTLVTVSSASTKGPSVFPLAPSSKSTSGGTAALGCLVKDYFPEPVTVSWNSGALTSGVHTFPAVLQSSGLYSLSSVVTVPSSSLGTQTYICNVNHKPSNTKVDKKVEPKSCDKTHTCPPCPAPELLGGPSVFLFPPKPKDTLMISRTPEVTCVVVDVSHDDPEVKFNWYVDGVEVHNAKTKPREEQYNATYRVVSVLTVLHQDWLNGKEYKCKVNNKALPAPIEATISKAKGQPREPAVYTLPPSREEMTKNQVKLVCLVTGFYPSDIAVEWESSGQPENNYYTTPPMLDSDGSFSLVSWLNVDKSRWQQGNIFSCSVMHEALHNRFTQKSLSLSPG heavy 2: QVQLVQSGAEVKKPGSSVKVSCKASGLPDATYAIGWVRQAPGQGLEWMGRIIPRLDAEHYAQKFQGRVTITADESTSTAYMELSSLRSEDTAVYYCARGLGYYLYSSYYFDIWGQGTLVTVSSASTKGPSVFPLAPSSKSTSGGTAALGCLVKDYFPEPVTVSWNSGALTSGVHTFPAVLQSSGLYSLSSVVTVPSSSLGTQTYICNVNHKPSNTKVDKKVEPKSCGGGGSGGGGSGGGGSQVQLVQSGAEVKKPGSSVKVSCKASGLPDATYAIGWVRQAPGQGLEWMGRIIPRLDAEHYAQKFQGRVTITADESTSTAYMELSSLRSEDTAVYYCARGLGYYLYSSYYFDIWGQGTLVTVSSASTKGPSVFPLAPSSKSTSGGTAALGCLVKDYFPEPVTVSWNSGALTSGVHTFPAVLQSSGLYSLSSVVTVPSSSLGTQTYICNVNHKPSNTKVDKKVEPKSCDKTHTCPPCPAPELLGGPSVFLFPPKPKDTLMISRTPEVTCVVVDVSHDDPEVKFNWYVDGVEVHNAKTKPREEQYNATYRVVSVLTVLHQDWLNGKEYKCKVNNKALPAPIEATISKAKGQPREPEVATFPPSRDELTKNQVTLVCLVTGFYPSDIAVEWESNGQPENNYKTDPPLLESQGSFALSSRLRVDKSRWQQGNVFSCSVMHEALHNHYTQKSLSLSPG light: not shown
